CN110526968A (UNIV NORTHWEST A&F, dated 2019)

Target: T1, 金黄色葡萄球菌肠毒素B (Staphylococcus aureus, UniProt P01552 28-266)
T1 construct: also called SEB
T1 sequence: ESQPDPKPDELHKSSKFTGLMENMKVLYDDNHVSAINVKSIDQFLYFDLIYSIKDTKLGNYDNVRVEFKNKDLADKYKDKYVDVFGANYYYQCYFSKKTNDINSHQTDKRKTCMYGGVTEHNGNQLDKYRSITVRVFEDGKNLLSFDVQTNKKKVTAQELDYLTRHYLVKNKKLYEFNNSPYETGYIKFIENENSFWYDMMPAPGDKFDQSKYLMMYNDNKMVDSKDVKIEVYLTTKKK
Experiment: phage ELISA on coated SEB, HRP anti-M13 detection

B1: 噬菌体克隆B7 (VHH)
VHH: ESGGGLVQAGGSLRLSCKVSGFNFREHALAWFRQAPGKEREGVSCIRGSGDYTTYADSVKGRFTISRDNAQNTLYLQMNSLRPEDTAMYYCAAARYARYYPNNCLDSAEYGYWGQGTLVTVS
notes: also called B7克隆
binding result: binds
